We go through three molecules from US12195761B2, “Bioprinted, 3D scaffolds for cellular test beds and methods of use thereof” (University of Florida Research Foundation, Inc., priority 2020, dated 2025).

One test has as its system rat fibroblast. The test is described as follows: Supplemental rat fibroblast viability study after printing in the bioink. Format: cell-based. Particulars: rat fibroblasts; compared to I2959 counterparts. An excerpt:
It is anticipated that crosslinking time can be reduced for the LAP group in the future to further increase viability.^40 Therefore, LAP became the crosslinker used for the later experiments for the advantages of LAP over I2959, as previously reported.^31,41

Another test has as its system Schwann cells (SCs). The test is described as follows: SC migration in 3D bioprinted hydrogels. The class given is cell-based, Rat. Conditions: 1 μg/mL growth factor in bioprinted MAHA 10/Col-I hydrogel; 7 days; n=5. The protocol:
SC Migration in 3D Bioprinted Hydrogels. The experimental groups included 1 μg/mL of NGF or GDNF encapsulated within 1 mL of bioink, whereas the control group contained no growth factor (no GF) (n=5). The bioinks were used to print a cylinder of 8 mm diameter and 2 mm height. The control group was printed without any growth factor. Next, SCs were seeded on top of the hydrogels at a cell density of 10^5 cells/cm^2 and cultured for 7 days with the media changed every 2 days. Hydrogel samples, stained using a Live/Dead assay, were then placed cell-side-down in a 35-mm diameter glass-bottom dish and imaged using a Zeiss LSM 880 laser-scanning confocal microscope. Z-stacked image of 500 μm deep at 10× magnification were analyzed to assess SC migration into the hydrogel using a Zeiss ZEN 2 software by creating a heat map based on relative depth within the hydrogel to measure the farthest migration points (n=5) in each sample. By taking the average of cell migration depth, this assessment examined the total migration into the biomaterials in 3D culture.

The test system of test [1] is DRG neural growth cone (GAP43). Description: DRG neurite outgrowth in competitive in vitro test beds, GAP43 signal. Conditions: normalized to total positive area, 7 days, n=3. Format: cell-based. The protocol: (§1) DRG Neurite Outgrowth in Competitive in vitro Test Beds. A 6-layer rectangular model with two arms or “chambers” were printed on each end (12 mm long, 5 mm wide, and 1.7 mm height). A base layer (0.7 mm height) was printed containing only the hydrogel. On top of the base on either side two “chambers” were printed; each chamber contained a concentration of 1 μg/mL of either NGF, GDNF, or no GF as control. To establish a competitive cue assay, three test bed groups were printed: NGF versus control (NGF/control), GDNF/control, or NGF/GDNF. DRGs were trimmed on the same day as testbed fabrication. Each DRG was semi-encapsulated at the center of the hydrogel testbeds by first placing the DRG directly in the middle of the two-chambered testbed and then securing in place with pH-neutralized Col-d solution at a concentration of 3 mg/mL. Col-d allowed for securing the DRG quickly without the need for direct UV exposure of the DRG. The test beds were incubated for 30 minutes to allow for collagen gelation and then media was added. Media was changed three hours following the addition of DRGs to account for bulk growth factor release into the media. DRGs were cultured for 7 days with media being changed every 2 days.
Following 7 days of culture, DRGs were fixed in 2% paraformaldehyde for 1 hour followed by three PBS rinses of 45 minutes each before blocking in 0.3% Triton X-100 and 3% goat serum in 1×PBS for 1 hour. The primary antibodies used were β-III tubulin to identify microtubules (i.e., indicating neurite extension) and GAP43, a “plasticity” protein that is expressed at high levels in neuronal growth cones (a secondary indicator of new neurite formation). Both antibodies were diluted at 1:500 dilutions and incubated on samples at 4° C. for 48 hours. DRGs were then washed with 0.05% Tween-20 in 1×PBS three times for 6 hours each. Secondary antibodies, AlexaFluor 488 α-rabbit and AlexaFluor 568 α-mouse at 1:500 dilutions, were added for 16 hours in blocking buffer. DRGs were rinsed with 0.05% Tween-20 in 1×PBS three times for 6 hours each. Cell nuclei were stained with DAPI in deionized water for 5 minutes at room temperature. For β-III tubulin marker, top-view images of DRGs were acquired with a Zeiss Axio Imager 2 microscope. ImageJ and the neurite tracer plugin were used to quantify neurite lengths extending from the DRG body. From a ranked list of directional neurite lengths, the five longest neurite extensions were averaged for each chamber side. […] For the GAP43 marker, samples were imaged from the top with a Zeiss LMA 880 confocal microscope. ImageJ was used to threshold positive signal for all images. Positive area was measured as directional outgrowth from each DRG in the left and right directions toward the growth factor chambers relative to the center of the DRG body. […]

The subject of another test is DRG neurites. The test is described as follows: DRG neurite outgrowth in competitive in vitro test beds, β-III tubulin neurite length. The class given is cell-based. Particulars: 7 days, n=5; for ratio of neurite length, growth factor side to control side: growth factor/control test bed, 1 μg/mL. Here is the method:
as §1
Following 7 days of culture, DRGs were fixed in 2% paraformaldehyde for 1 hour followed by three PBS rinses of 45 minutes each before blocking in 0.3% Triton X-100 and 3% goat serum in 1×PBS for 1 hour. The primary antibodies used were β-III tubulin to identify microtubules (i.e., indicating neurite extension) and GAP43, a “plasticity” protein that is expressed at high levels in neuronal growth cones (a secondary indicator of new neurite formation). Both antibodies were diluted at 1:500 dilutions and incubated on samples at 4° C. for 48 hours. […] ImageJ and the neurite tracer plugin were used to quantify neurite lengths extending from the DRG body. […] Positive area was measured as directional outgrowth from each DRG in the left and right directions toward the growth factor chambers relative to the center of the DRG body. […]

On to `Cc1cc(C)c(C(=O)P(=O)([O-])c2ccccc2)c(C)c1.[Li+]` [LAP, lithium phenyl-2,4,6-trimethylbenzoyl-phosphinate], for which the “viability of bioprinted cells by photoinitiator” value in the test on rat fibroblast is reported as “highest viability”.

B1: glial cell line-derived neurotrophic factor (protein, UniProt P39905 78-211, looked up)
Glial cell line-derived …: SPDKQMAVLPRRERNRQAAAANPENSRGKGRRGQRGKNRGCVLTAIHLNVTDLGLGYETKEELIFRYCSGSCDAAETTYDKILKNLSRNRRLVSDKVGQACCRPIAFDDDLSFLDDNLVYHILRKHSAKRCGCI
notes: glial cell line-derived neurotrophic factor (R&D Systems 512-GF-010/CF)
As for B1, the “SCs migrated distance into hydrogels” value in the test with Schwann cells (SCs) is listed as 403±79.6 μm. Further, the “fraction positive GAP43 signal” value turned out to be 0.42 in test [1] (NGF/GDNF test bed) and 0.66 in test [1] (growth factor/control test bed). In addition, the “ratio of neurite length, growth factor side to control side” value with DRG neurites is 1.41±0.06.

B2: Rat beta-nerve growth factor (protein, UniProt P25427 122-241, looked up)
Beta-nerve growth factor: SSTHPVFHMGEFSVCDSVSVWVGDKTTATDIKGKEVTVLGEVNINNSVFKQYFFETKCRAPNPVESGCRGIDSKHWNSYCTTTHTFVKALTTDDKQAAWRFIRIDTACVCVLSRKAARRG
notes: Rat beta-nerve growth factor (R&D Systems 556-NG-100)
For B2, the “SCs migrated distance into hydrogels” value in the test on Schwann cells (SCs) stood at 301±89.4 μm. Besides, the “fraction positive GAP43 signal” value was determined as 0.58 in test [1] (NGF/GDNF test bed) and 0.63 in test [1] (growth factor/control test bed). Besides, the “ratio of neurite length, NGF to GDNF” value with DRG neurites (NGF/GDNF test bed, 1 μg/mL each) is 1.09±0.19. Also, in the test on DRG neurites, the “ratio of neurite length, growth factor side to control side” value is recorded as 1.42±0.13.
